Assay results from US20060104978A1, “Methods and compositions for PDGF-C activation and inhibition” (LUDWIG INSTITUTE FOR CANCER RESEARCH, priority 2003, published 2006).

B1: activated PDGF-CC: activated PDGF-CC protein, growth factor without CUB domains (protein)
chain: GRKSRVVDLNLLTEEVRLYSCTPRNFSVSIREELKRTDTIFWPGCLLVKRCGGNCACCLHNCNECQCVPSKVTKKYHEVLQLRPKTGVRGLHKSLTDVALEHHEECDCVCRGSTGG
B2: CUB domain: free CUB domain of PDGF-C; recombinant His6-tagged (residues 23-163) or c-myc-tagged (residues 1 to 165) (protein)
chain: ESNLSSKFQFSSNKEQNGVQDPQHERIITVSTNGSIHSPRFPHTYPRNTVLVWRLVAVEENVWIQLTFDERFGLEDPEDDICKYDFVEVEEPSDGTILGRWCGSGTVPGKQISKGNQIRIRFVSDEYFPSEPGFCIHYNIVHHHHHH

Columns and labels:
[1] = biological target: T1, PDGFR-α (Mus musculus, UniProt P26618); test: PDGFR-α tyrosine phosphorylation in primary fibroblasts; assay type: cell-based; settings: 100 ng/ml activated PDGF-CC protein
T1 construct: endogenous in cells; host or cells: primary mouse kidney and lung fibroblasts
T1 sequence (P26618 25-1089): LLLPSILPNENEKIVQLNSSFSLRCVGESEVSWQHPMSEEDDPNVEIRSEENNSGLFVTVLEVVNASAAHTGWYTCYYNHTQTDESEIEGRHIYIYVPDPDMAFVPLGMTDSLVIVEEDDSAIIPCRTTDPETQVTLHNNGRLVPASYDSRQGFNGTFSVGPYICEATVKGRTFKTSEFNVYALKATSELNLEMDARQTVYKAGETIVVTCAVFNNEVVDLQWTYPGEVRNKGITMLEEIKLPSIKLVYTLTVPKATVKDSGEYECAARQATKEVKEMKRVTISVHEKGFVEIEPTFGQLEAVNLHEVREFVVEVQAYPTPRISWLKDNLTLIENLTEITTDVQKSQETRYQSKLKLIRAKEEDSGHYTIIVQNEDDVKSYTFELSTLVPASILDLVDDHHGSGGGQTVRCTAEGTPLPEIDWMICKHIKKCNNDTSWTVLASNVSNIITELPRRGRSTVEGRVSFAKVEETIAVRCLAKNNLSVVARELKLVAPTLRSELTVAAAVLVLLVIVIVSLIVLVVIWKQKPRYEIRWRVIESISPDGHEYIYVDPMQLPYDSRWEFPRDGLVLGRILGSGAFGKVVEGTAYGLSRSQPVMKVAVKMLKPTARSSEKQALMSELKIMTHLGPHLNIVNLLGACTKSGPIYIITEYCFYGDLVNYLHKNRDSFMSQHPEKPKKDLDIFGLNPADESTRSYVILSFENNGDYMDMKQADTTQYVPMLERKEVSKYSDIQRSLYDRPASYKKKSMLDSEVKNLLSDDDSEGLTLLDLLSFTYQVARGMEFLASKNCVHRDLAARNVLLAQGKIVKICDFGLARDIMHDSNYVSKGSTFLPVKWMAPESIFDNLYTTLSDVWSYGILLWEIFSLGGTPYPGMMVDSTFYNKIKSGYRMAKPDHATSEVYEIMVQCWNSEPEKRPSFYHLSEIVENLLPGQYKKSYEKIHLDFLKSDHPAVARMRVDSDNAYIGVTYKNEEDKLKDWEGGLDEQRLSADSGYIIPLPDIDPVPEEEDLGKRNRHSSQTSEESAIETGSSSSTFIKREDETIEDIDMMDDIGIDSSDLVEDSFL
Description: It is known that constitutive activation of PDGFRs by PDGFs leads to receptor desensitization (Heldin and Westermark, 1999), and therefore it was investigated whether the differences observed in growth between the wild-type and tPA-deficient fibroblasts upon PDGF-CC treatment were due to differential activation of PDGFR-α. Recombinant PDGF-CC protein was applied onto the primary fibroblasts and receptor activation was measured as induction of PDGFR-α tyrosine phosphorylation (FIG. 7D, upper panel).
To monitor growth factor-induced tyrosine phosphorylation of PDGFR-α, serum-starved PAE cells stably expressing human PDGFR-α were incubated for 120 min on ice with conditioned medium from COS-1 cells transfected with full-length PDGF-C in the absence or presence of tPA. Alternatively, primary wild-type and tPA-deficient fibroblasts were stimulated with 100 ng/ml activated PDGF-CC protein. The cells were lysed as described previously (Li et al, 2000) and PDGFR-α was immunoprecipitated using a specific antiserum (Eriksson et al, 1992). Precipitated proteins were separated by SDS-PAGE under reducing conditions. Tyrosinephosphorylated receptors were detected by immunoblotting using an antiphosphotyrosine antibody (PY99, Santa Cruz). The membranes were stripped and reprobed using a polyclonal antibody against the C-terminal of the PDGFRs (CED) to detect receptor expression levels.

[2] = tested on: wild-type and tPA-deficient fibroblasts; test: BrdU incorporation in primary fibroblasts; assay type: cell-based, mouse; settings: 50 ng/ml, 24 hours BrdU labeling
Description: Cell nuclei were visualized with 4′,6-diamidine-2′-phenylindole dihydrochloride (DAPI), and BrdU-labeled cells were determined by immunofluorescence using antibodies to BrdU (FIG. 7B).
(§1) To monitor cell growth, both the cell proliferation reagent WST-1 (Roche) and BrdU (Sigma) were used. A total of 0.4×10^4 (WST-1) or 1×10^4 (BrdU) wild-type and tPA-deficient fibroblasts were seeded in triplicate-hexaplicate, and after attachment they were serum-starved overnight. Serum-starved cells were counted (WST-1 seeding control) and alternatively incubated for 24 hours in serum-free medium supplemented with 1 mg/ml BSA, and 50 μM BrdU in the BrdU experiment, in the absence or presence of 50 ng/ml activated PDGF-CC or tPA protein (#116, American Diagnostica Inc.). Upon counting, WST-1 reagent was added and measured according to the manufacturer's protocol using an ELISA reader. In the BrdU experiment, the cells were fixed in 4% paraformaldehyde in PBS for 30 min at room temperature and the DNA was denatured in 2M HCl for 20 min at room temperature and then blocked in 0.5% BSA, 0.5% Tween, and 10% goat serum in PBS. […] Quantification of the BrdU-positive cells was performed by counting all cells along the vertical and horizontal diameters of all wells.

[3] = tested on: tPA-deficient fibroblasts; test: WST-1 growth assay of primary fibroblasts in serum-free medium; assay type: cell-based, mouse; settings: 50 ng/ml added to serum-free culture medium, 24 hours
Description: It was observed that primary fibroblasts derived from tPA-deficient mice grew more slowly in culture than fibroblasts derived from wild-type animals, raising the possibility that activation of latent PDGF-CC by tPA generated autocrine and paracrine growth stimulatory loops for primary fibroblasts in culture. To analyze this effect, isolated wild-type and tPA-deficient fibroblasts were serum-starved overnight, and the growth of the cells during the next 24 hours was monitored using an enzyme-based viability assay (see Example 8, Materials and Methods).
as §1, with “reader.” for “reader. In the BrdU experiment, the cells were fixed in 4% paraformaldehyde in PBS for 30 min at room temperature and the DNA was denatured in 2M HCl for 20 min at room temperature and then blocked in 0.5% BSA, 0.5% Tween, and 10% goat serum in PBS.”

[4] = cornea pocket model; cited from earlier work
[5] = tested on: tPA; test: Ni-NTA pull-down of purified tPA by His6-tagged recombinant proteins; assay type: binding, human; settings: Ni-NTA beads coated with His6-tagged protein, 1 μg purified tPA, 2 hours room temperature, eluted with imidazole
Sequence of tPA (P00750 36-562): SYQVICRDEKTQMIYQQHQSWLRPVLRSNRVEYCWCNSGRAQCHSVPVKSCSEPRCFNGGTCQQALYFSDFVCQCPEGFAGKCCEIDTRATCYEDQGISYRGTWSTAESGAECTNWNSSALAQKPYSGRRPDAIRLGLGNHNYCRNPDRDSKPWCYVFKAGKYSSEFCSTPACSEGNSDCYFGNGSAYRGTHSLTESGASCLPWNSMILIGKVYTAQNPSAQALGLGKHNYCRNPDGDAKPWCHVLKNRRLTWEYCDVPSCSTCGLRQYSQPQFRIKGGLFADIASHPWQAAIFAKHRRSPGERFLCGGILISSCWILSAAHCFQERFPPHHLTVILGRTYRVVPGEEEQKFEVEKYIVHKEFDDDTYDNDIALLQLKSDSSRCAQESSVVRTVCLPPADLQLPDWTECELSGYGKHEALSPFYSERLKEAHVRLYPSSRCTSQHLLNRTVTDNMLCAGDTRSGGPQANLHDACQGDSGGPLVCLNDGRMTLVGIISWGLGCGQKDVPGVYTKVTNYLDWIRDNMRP
Description: The possibility of a direct protein-protein interaction between tPA and latent PDGF-CC was explored by developing a pull-down assay. Ni-NTA beads were allowed to bind recombinant His6-tagged latent PDGF-CC or PDGF-DD, and purified tPA was added and incubated. Following extensive washings, bound proteins were subsequently eluted with an imidazole-containing buffer, and the eluates were analyzed by immunoblotting using specific antibodies.
To determine a direct protein-protein interaction between tPA and PDGF-CC, His6-tagged recombinant protein species were bound to Ni-NTA-agarose (Qiagen) and then incubated with 1 μg of purified tPA for 2 hours at room temperature. Uncoated and PDGF-DD coated Ni-NTA beads were used as controls. The beads were washed thoroughly, and His6-tagged proteins were specifically eluted with 400 mM imidazole. Eluted proteins were analyzed by SDS-PAGE under reducing conditions and immunoblotted with antibodies against human tPA (see above). The membranes were subsequently stripped and reprobed with specific antibodies.

[6] = tested on: tPA; test: Cotransfection assay in COS-1 cells: PDGF-CC forms and mutants coexpressed with tPA; assay type: cell-based, human; settings: over-expression of free CUB domain (CUBc-myc) with full-length PDGF-C and tPA in COS-1 cells
Description: The structural requirements for recognition of full-length PDGF-CC as a substrate for tPA were mapped by analysis of several mutated forms of PDGF-CC using the co-transfection assay. The mutants of PDGF-CC included a chimeric form of PDGF-C carrying the CUB domain from PDGF-D and the hinge region and growth factor domain of PDGF-C (mutant PDCUBPC), and several truncation mutants lacking the CUB domain and increasing parts of the hinge region (schematically illustratrated in FIG. 6A). All mutants were properly expressed in transfected COS-1 cells, formed disulfide-linked dimers (data not shown), and were efficiently secreted, except truncation mutant Δ190 that was expressed at a lower level in the conditioned medium (FIG. 6B).
A conserved site of four amino acids containing three basic amino-acid residues (amino-acid residues -R-K-S-R-) was previously identified as a potential site for proteolytic activation of latent PDGF-CC (Li et al, 2000). […]
To test the endogenous expression of PDGF-CC, subconfluent AG1523 cells and primary fibroblast cultures were cultured in serum-free DMEM overnight. […] In the case of the primary cultures, total protein concentration was measured and normalized (Bradford, 1976). […] PDGF-C and PDGF-D were detected by immunoblotting using affinity-purified polyclonal rabbit antibodies against PDGF-C (Li et al, 2000) and PDGF-D (Bergsten et al, 2001), respectively. […]

Molecule	induction of PDGFR-α tyrosine phosphorylation, tPA-deficient versus wild-type fibroblasts [1]	BrdU incorporation in tPA-deficient cells ([2]; serum-starved tPA-deficient fibroblasts)	BrdU incorporation in wild-type cells ([2]; serum-starved wild-type fibroblasts)	rescue of growth of tPA-deficient fibroblasts [3]	neoangiogenesis [4]	binding of tPA in pull-down [5]	competition for tPA-mediated processing of latent PDGF-CC [6]
B1	more pronounced in the tPA-deficient cells as compared to wild type	strongly stimulated BrdU incorporation in the tPA-deficient cells	had less effect on wild-type cells	allowed the cells to grow similar to the wild-type fibroblasts	strong inducer of neoangiogenesis		
B2						both domains were able to interact with tPA	efficiently competed for the interaction and processing of latent PDGF-CC by tPA
